Target: the molecule itself
Assay: SEC; affinity-purified protein alone; Superdex 200 Increase 10/300 GL, 100 uL of 10 mg/mL, 0.2 mL/min; 200 mM NaCl, 10 mM Tris HCl pH 7.5, 5% glycerol, 1 mM DTT; monomer and dimer peaks

B1: Escherichia coli LolA P65T (natural protein, UniProt P61316 22-203, looked up)
chain: DAASDLKSRLDKVSSFHASFTQKVTDGSGAAVQEGQGDLWVKRTNLFNWHMTQPDESILVSDGKTLWFYNPFVEQATATWLKDATGNTPFMLIARNQSSDWQQYNIKQNGDDFVLTPKASNGNLKQFTINVGRDGTIHQFSAVEQDDQRSSYQLKSQQNGAVDAAKFTFTPPQGVTVDDQRK
notes: LolA of Escherichia coli; source: E. coli BL21(DE3), purified (Ni-NTA, SEC)
stoichiometry N: 2
